Blank lines part the entries; values can stand above or below the binder they belong to.
Assays:
Experiment in all cases: holdup assay
Design in all cases: key: below the threshold = too weak to quantify, mostly under pKd 3.1 to 4
APBA1_2, Q02410 = biological target: T1, APBA1_2, Q02410
T1 sequence (Q02410 742-832, limits assumed, looked up): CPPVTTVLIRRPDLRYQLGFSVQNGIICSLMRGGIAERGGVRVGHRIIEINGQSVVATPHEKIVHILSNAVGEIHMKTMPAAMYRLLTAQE

APBA3_1, O96018 = biological target: T2, APBA3_1, O96018
T2 sequence (O96018 389-490, limits assumed, looked up): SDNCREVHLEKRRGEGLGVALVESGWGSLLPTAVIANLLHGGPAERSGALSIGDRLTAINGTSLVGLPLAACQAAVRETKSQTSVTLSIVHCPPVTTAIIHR

CASK, O14936 = biological target: CASK, O14936
DLG1_3, Q12959 = biological target: DLG1_3, Q12959
DLG3_3, Q92796 = biological target: T3, DLG3_3, Q92796
T3 sequence (Q92796 374-475, limits assumed, looked up): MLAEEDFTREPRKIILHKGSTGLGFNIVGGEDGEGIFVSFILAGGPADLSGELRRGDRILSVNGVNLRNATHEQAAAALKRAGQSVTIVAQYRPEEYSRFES

DLG4_1, P78352 = biological target: DLG4_1, P78352
FRMPD2_3, Q68DX3 = biological target: FRMPD2_3, Q68DX3
FRMPD3, Q5JV73 = biological target: FRMPD3, Q5JV73
GOPC, Q9HD26 = biological target: GOPC, Q9HD26
GRIP2_3, Q9C0E4 = biological target: GRIP2_3, Q9C0E4
GRIP2_6, Q9C0E4 = biological target: GRIP2_6, Q9C0E4
Inadl_4, Q8NI35 = biological target: Inadl_4, Q8NI35
Inadl_8, Q8NI35 = biological target: Inadl_8, Q8NI35
LAP2, Q96RT1 = biological target: LAP2, Q96RT1
LIMK2, P53671 = biological target: LIMK2, P53671
LNX1_1, Q8TBB1 = biological target: LNX1_1, Q8TBB1
LNX2_3, Q8N448 = biological target: T4, LNX2_3, Q8N448
T4 sequence (Q8N448 463-564, limits assumed, looked up): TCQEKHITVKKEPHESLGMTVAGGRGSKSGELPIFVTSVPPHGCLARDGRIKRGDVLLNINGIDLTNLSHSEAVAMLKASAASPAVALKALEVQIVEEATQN

LRRC7, Q96NW7 = biological target: T5, LRRC7, Q96NW7
T5 sequence (Q96NW7 1440-1537, limits assumed, looked up): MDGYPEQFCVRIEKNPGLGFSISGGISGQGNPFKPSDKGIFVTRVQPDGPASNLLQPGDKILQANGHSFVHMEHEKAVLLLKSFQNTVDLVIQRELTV

NHERF2_2, Q15599 = biological target: NHERF2_2, Q15599
NHERF3_1, Q5T2W1 = biological target: T6, NHERF3_1, Q5T2W1
T6 sequence (Q5T2W1 4-100, limits assumed, looked up): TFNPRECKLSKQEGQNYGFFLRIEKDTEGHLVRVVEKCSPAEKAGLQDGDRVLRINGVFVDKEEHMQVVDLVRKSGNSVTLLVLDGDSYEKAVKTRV

NHERF3_3, Q5T2W1 = biological target: T7, NHERF3_3, Q5T2W1
T7 sequence (Q5T2W1 238-333, limits assumed, looked up): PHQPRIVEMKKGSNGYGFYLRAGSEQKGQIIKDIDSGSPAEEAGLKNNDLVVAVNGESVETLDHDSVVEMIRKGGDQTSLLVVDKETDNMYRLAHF

NHERF4_2, Q86UT5 = biological target: NHERF4_2, Q86UT5
PDZD7_3, Q9H5P4 = biological target: T8, PDZD7_3, Q9H5P4
T8 sequence (Q9H5P4 857-944, limits assumed, looked up): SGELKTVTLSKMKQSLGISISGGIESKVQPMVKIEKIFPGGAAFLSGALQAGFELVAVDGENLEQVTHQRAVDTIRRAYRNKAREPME

RHPN1, Q8TCX5 = biological target: T9, RHPN1, Q8TCX5
T9 sequence (Q8TCX5 508-602, limits assumed, looked up): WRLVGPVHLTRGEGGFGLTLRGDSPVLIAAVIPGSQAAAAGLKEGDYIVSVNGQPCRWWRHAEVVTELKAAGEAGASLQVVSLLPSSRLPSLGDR

SHANK1, Q9Y566 = biological target: T10, SHANK1, Q9Y566
T10 sequence (Q9Y566 658-767, limits assumed, looked up): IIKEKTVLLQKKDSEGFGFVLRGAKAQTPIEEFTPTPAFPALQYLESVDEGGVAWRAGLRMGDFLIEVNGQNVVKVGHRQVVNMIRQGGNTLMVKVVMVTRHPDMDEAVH

TJP2_1, Q9UDY2 = biological target: TJP2_1, Q9UDY2
TJP3_3, O95049 = biological target: T11, TJP3_3, O95049
T11 sequence (O95049 375-456, limits assumed, looked up): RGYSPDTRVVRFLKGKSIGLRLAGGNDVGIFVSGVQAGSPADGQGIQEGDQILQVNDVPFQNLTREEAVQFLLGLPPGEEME

[1] = plain residues with an end cap or a label only (N-terminal biotin on a linker: ahx)
[2] = plain residues with an end cap or a label only (N-terminal biotin on a linker: ttds)

Chain of NHERF2_2, Q15599 (Q15599 142-238): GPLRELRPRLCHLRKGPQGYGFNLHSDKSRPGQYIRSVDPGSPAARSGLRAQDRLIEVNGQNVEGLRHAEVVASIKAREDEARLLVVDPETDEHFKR
Chain of DLG1_3, Q12959 (Q12959 457-571): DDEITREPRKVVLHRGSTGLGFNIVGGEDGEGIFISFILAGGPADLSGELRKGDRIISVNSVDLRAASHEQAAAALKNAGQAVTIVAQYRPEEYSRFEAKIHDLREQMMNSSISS
Chain of Inadl_4, Q8NI35 (Q8NI35 547-651): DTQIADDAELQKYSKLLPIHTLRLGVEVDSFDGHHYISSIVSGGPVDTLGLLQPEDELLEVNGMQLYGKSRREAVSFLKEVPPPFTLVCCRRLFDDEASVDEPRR
Chain of Inadl_8, Q8NI35 (Q8NI35 1425-1530): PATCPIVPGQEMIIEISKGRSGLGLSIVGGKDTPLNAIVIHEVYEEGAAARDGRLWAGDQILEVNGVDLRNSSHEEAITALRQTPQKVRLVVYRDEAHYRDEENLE
Chain of NHERF4_2, Q86UT5 (Q86UT5 220-308): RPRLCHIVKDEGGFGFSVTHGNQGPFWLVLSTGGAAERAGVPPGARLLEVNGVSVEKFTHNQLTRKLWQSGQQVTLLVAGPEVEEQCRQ
Chain of FRMPD3, Q5JV73 (Q5JV73 12-100): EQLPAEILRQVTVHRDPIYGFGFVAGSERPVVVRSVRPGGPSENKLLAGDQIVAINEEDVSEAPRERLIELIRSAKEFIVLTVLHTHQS
Chain of LNX1_1, Q8TBB1 (Q8TBB1 261-371): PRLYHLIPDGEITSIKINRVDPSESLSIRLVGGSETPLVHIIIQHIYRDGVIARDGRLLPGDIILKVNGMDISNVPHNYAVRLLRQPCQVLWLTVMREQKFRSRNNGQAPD
Chain of LAP2, Q96RT1 (Q96RT1 other isoform, or with tags, fused parts or gaps): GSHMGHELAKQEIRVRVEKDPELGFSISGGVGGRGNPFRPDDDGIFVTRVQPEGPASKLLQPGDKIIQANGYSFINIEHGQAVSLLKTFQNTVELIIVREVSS
Chain of TJP2_1, Q9UDY2 (Q9UDY2 24-128): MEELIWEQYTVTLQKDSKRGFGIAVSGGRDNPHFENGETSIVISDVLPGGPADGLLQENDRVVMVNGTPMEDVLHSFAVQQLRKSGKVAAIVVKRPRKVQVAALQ
Chain of GRIP2_3, Q9C0E4 (Q9C0E4 238-339): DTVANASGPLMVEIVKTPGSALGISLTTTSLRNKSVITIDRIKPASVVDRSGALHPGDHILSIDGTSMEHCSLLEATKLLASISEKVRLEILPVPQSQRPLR
Chain of DLG4_1, P78352 (P78352 62-152): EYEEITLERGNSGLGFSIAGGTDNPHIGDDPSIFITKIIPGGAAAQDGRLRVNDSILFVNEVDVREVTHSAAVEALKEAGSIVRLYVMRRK
Chain of FRMPD2_3, Q68DX3 (Q68DX3 1073-1166): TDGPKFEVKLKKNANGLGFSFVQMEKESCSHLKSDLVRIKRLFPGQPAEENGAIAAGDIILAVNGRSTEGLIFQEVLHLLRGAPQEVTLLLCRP
Chain of CASK, O14936 (O14936 487-570): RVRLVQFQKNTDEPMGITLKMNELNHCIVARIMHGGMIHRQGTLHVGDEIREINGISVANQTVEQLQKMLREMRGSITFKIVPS
Chain of GRIP2_6, Q9C0E4 (Q9C0E4 648-740): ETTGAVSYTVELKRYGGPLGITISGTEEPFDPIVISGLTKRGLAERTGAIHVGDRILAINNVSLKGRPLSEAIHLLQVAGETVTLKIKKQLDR
Chain of LIMK2, P53671 (P53671 143-248): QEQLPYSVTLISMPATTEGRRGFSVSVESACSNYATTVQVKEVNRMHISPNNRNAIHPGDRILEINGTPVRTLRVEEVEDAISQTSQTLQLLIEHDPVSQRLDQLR

pKd (APBA1_2, Q02410; [1]): 4.87
pKd (APBA3_1, O96018; [1]): below the threshold
pKd (CASK, O14936; [1]): below the threshold
pKd (DLG1_3, Q12959; [1]): below the threshold
pKd (DLG3_3, Q92796; [1]): below the threshold
pKd (DLG4_1, P78352; [1]): 4.22
pKd (FRMPD2_3, Q68DX3; [1]): below the threshold
pKd (FRMPD3, Q5JV73; [1]): below the threshold
pKd (GOPC, Q9HD26; [1]): 3.53
pKd (GRIP2_3, Q9C0E4; [1]): below the threshold
pKd (GRIP2_6, Q9C0E4; [1]): below the threshold
pKd (Inadl_4, Q8NI35; [1]): below the threshold
pKd (Inadl_8, Q8NI35; [1]): 4.22
pKd (LAP2, Q96RT1; [1]): 4.34
pKd (LIMK2, P53671; [1]): below the threshold
pKd (LNX1_1, Q8TBB1; [1]): 4.21
pKd (LNX2_3, Q8N448; [1]): below the threshold
pKd (LRRC7, Q96NW7; [1]): 3.59
pKd (NHERF2_2, Q15599; [1]): below the threshold
pKd (NHERF3_1, Q5T2W1; [1]): 4.41
pKd (NHERF3_3, Q5T2W1; [1]): below the threshold
pKd (NHERF4_2, Q86UT5; [1]): below the threshold
pKd (PDZD7_3, Q9H5P4; [1]): 4.31
pKd (RHPN1, Q8TCX5; [1]): 4.03
pKd (SHANK1, Q9Y566; [1]): below the threshold
pKd (TJP2_1, Q9UDY2; [1]): 4.45
pKd (TJP3_3, O95049; [1]): below the threshold
B1: RGS12, O14924 (peptide)
chain: KTSAHHATFV

pKd (APBA1_2, Q02410; [2]): 3.86
pKd (APBA3_1, O96018; [2]): below the threshold
pKd (CASK, O14936; [2]): below the threshold
pKd (DLG1_3, Q12959; [2]): 3.86
pKd (DLG3_3, Q92796; [2]): 3.88
pKd (DLG4_1, P78352; [2]): 5.13
pKd (FRMPD2_3, Q68DX3; [2]): below the threshold
pKd (FRMPD3, Q5JV73; [2]): below the threshold
pKd (GOPC, Q9HD26; [2]): 3.84
pKd (GRIP2_3, Q9C0E4; [2]): below the threshold
pKd (GRIP2_6, Q9C0E4; [2]): below the threshold
pKd (Inadl_4, Q8NI35; [2]): below the threshold
pKd (Inadl_8, Q8NI35; [2]): 3.53
pKd (LAP2, Q96RT1; [2]): 4.39
pKd (LIMK2, P53671; [2]): below the threshold
pKd (LNX1_1, Q8TBB1; [2]): 4.03
pKd (LNX2_3, Q8N448; [2]): below the threshold
pKd (LRRC7, Q96NW7; [2]): 3.81
pKd (NHERF2_2, Q15599; [2]): below the threshold
pKd (NHERF3_1, Q5T2W1; [2]): below the threshold
pKd (NHERF3_3, Q5T2W1; [2]): below the threshold
pKd (NHERF4_2, Q86UT5; [2]): below the threshold
pKd (PDZD7_3, Q9H5P4; [2]): 4.08
pKd (RHPN1, Q8TCX5; [2]): 4.18
pKd (SHANK1, Q9Y566; [2]): below the threshold
pKd (TJP2_1, Q9UDY2; [2]): below the threshold
pKd (TJP3_3, O95049; [2]): below the threshold
B2: ARHGEF16, Q5VV41 (peptide)
chain: MERLRVETDV
